{"source": "patent US20100061991A1", "molecular_target": "human DCIR (dendritic cell immunoreceptor), full length, isotype 1 (human) (UniProt Q9UMR7)", "sequence (Q9UMR7 whole entry)": "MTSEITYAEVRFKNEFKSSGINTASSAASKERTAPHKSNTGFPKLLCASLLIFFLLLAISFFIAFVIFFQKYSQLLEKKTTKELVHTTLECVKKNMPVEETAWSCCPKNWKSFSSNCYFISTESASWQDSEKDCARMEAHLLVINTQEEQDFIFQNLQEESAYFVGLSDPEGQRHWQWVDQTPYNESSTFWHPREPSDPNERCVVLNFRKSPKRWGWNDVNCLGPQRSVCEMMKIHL", "test": "cell-based or functional assay"}
{"substance": "HIV-1 NL4-3balenv virions (R5-tropic; NL4-3 with the env gene of HIV-1 Bal)", "values": [{"measurement": "reduction in virus transfer from IM-MDDC to CD4+ T cells after DCIR-specific siRNA, in absence of EFV", "value": 30, "unit": "%"}, {"measurement": "reduction in virus transfer from IM-MDDC to CD4+ T cells after DCIR-specific siRNA, in cells treated with EFV", "value": 40, "unit": "%"}]}
